Measured values: paper PMC3623905
Values joined by “and” are separate entries in the source; they are usually repeats but may differ in a detail not shown here. Equal entries are not always repeated.

What was measured:
[1] = target: Insulin-degrading enzyme wild type (rat); experiment: SEC with static light scattering (SLS); 200 μg injected into a Superdex G-200 column, working buffer, 0.5 ml/min; 90° light scattering with UV or refractive index; calibrated with BSA
[2] = target: Proteolytically inactive recombinant insulin-degrading enzyme with Glu111 replaced by Gln (rat); experiment: as above

stoichiometry N [1]	stoichiometry N [2]	Substance
4 and 2	–	Insulin-degrading enzyme wild type
–	2 and 4	Proteolytically inactive recombinant insulin-degrading enzyme with Glu111 replaced by Gln
